Results on 1 substance are retold here after PMC2714072.

In assay [1] the target is SYT/L (long isoform of SYT/SS18), monkey (Cos-1) (monkey (endogenous in Cos-1)). Put plainly: co-IP; endogenous proteins; post-nuclear (cytosolic) lysates of U2OS or Cos-1 cells in MLB buffer (25 mM HEPES pH 7.5, 150 mM NaCl, 1% Igepal CA-630, 10 mM MgCl2, 1 mM EDTA, 2% glycerol, 1 mM ATP); 1 µg pSYT or SYT/L-specific antibody overnight, Protein G PLUS-Agarose, 3 washes with RIPA buffer; bands stained with SYPRO Ruby, excised and identified by nano LC/MS/MS; controls: IgG and lysates of panSYT229 RNAi cells; Cos-1 lysates also pre-incubated with 100 µM GTP-γS or 1 mM GDP for 30 min at 30°C.

For assay [2], the target named is SYT/S (short isoform of SYT/SS18), monkey (Cos-1) (monkey (endogenous in Cos-1)). The assay is described as above.

Where only a bound is given, the exact number is not on record here.

Turning to “actin, monkey (Cos-1) (from UniProt Q76N69 1-375) (natural protein)”, the difference in co-immunoprecipitated level between lysates with GTP-γS and with GDP in assay [1] and in assay [2] was below 5% in each case.
